Measurements as given in patent US20240108693A1, “METHOD OF TREATING LOWER URINARY TRACT SYMPTOMS” (Versameb AG, priority 2021, published 2024).
Entries after “also recorded” stand apart in the source; their conditions may differ.

B1: Cpd.1A: mRNA encoding human BDNF signal peptide, IGF1 pro-domain and mature human IGF1 (SEQ ID NO: 8), from pMA-T vector, N1-methylpseudouridine modified (nucleic acid)
DNA: AUGACCAUCCUGUUUCUGACAAUGGUCAUCAGCUACUUCGGCUGCAUGAAGGCCGUGAAGAUGCACACCAUGAGCAGCAGCCACCUGUUCUAUCUGGCCCUGUGCCUGCUGACCUUUACCAGCUCUGCUACCGCCGGACCUGAGACACUUUGUGGCGCUGAACUGGUGGACGCCCUGCAGUUUGUGUGUGGCGACAGAGGCUUCUACUUCAACAAGCCCACAGGCUACGGCAGCAGCUCUAGAAGGGCUCCUCAGACCGGAAUCGUGGACGAGUGCUGCUUCAGAAGCUGCGACCUGCGGCGGCUGGAAAUGUAUUGUGCCCCUCUGAAGCCUGCCAAGAGCGCCUAA
modifications: mRNA, N1-methylpseudouridine modified; misc_feature 1..348 RNA sequence of Cpd.1A and Cpd.1B; misc_feature 1..348 m1f (uridine is 1-methylpseudouridine)
B2: Cpd.1B: mRNA encoding human BDNF signal peptide, pro-IGF1 and mature IGF1 without E-peptide, 120 bp poly-A tail, from pMK vector (nucleic acid)
chain: B1 DNA
modifications: 1-methylpseudouridine; poly-A tail; misc_feature 1..348 RNA sequence of Cpd.1A and Cpd.1B; misc_feature 1..348 m1f (uridine is 1-methylpseudouridine)
notes: mRNA encoding human BDNF signal peptide, pro-IGF1 and mature IGF1 without E-peptide, 120 bp poly-A tail, from pMK vector

Assays:
[1] = system: vaginal distension (VD) animal model of stress urinary incontinence (SUI); experiment: Histological assessment of urethral integrity after vaginal distension (Masson trichrome scores); assay type: in vivo, rat; settings: mid-urethra cross-sections, Day 9 and 14 after VD
Experimental: Vaginal Distension (VD) was applied for 4 hours to female Sprague-Dawley Female rats under isoflurane anesthesia. 1 hour after the end of VD, the abdomen was surgically opened to access the urethra and rats received two injections of vehicle or Cpd.1B (10 μg each) through a Hamilton syringe at approximately 5 and 7 o'clock positions. Sham treated animals (catheter without inflation) were treated with vehicle as controls. […] From 2 animals of each group, the urethra-vaginal tissues were harvested (cross-section of the mid-urethra and anterior vagina) on Day 9 and 14, and the tissues immersed in neutral buffered formalin containing 4% formaldehyde for a period of 4 h, then embedded in paraffin. Sections of 5 μm were stained with the standard procedures of Hemalun-Eosin (HE), Masson Trichrome (MT) and Picrosirius red. Based on morphology and tissue integrity, histology scores were allocated to the outer circular muscle layer (OCML), the inner longitudinal muscle layer (ILML) and the endomysial tissue of mid-urethral sections, and Day 9 and 14 sampled. The following histological scores were applied to the different layers and averaged per group: • Outer Circular Muscle Layer (OCML, skeletal muscle): • 0=circumferential regular • 1=circumferential focally thinned • 2=discontinued • 3=mostly absent • Inner Longitudinal Muscle Layer (ILML, smooth muscle): • 0=mid-sized to large fascicles • 1=small fascicles) • Endomysial tissue: • 0=thin, dense • 1=thickening by loose connective tissue • 2=focal replacement of muscles by connective tissue • 3=replacement of muscles by connective tissue

[2] = system: vaginal distension (VD) animal model of stress urinary incontinence (SUI); experiment: Leak point pressure (LPP) in rat vaginal distension model for stress urinary incontinence; assay type: in vivo; settings: for area under curve (AUC) of urinary bladder leak point pressure: Day 0-14 after VD; for time course of leak point pressure (LPP): Day 4, 9 and 14 after VD; for leak point pressure (LPP) of urinary bladder: Cpd.1B single urethral injection Day 0, Duloxetine 20 mg/kg oral daily
Excerpt: The urethra is a conduit for elimination of urine from the bladder. It is composed of an epithelium lining the lumen, lamina propria with a prominent vascular plexus, smooth muscle and an outer layer of striated muscle (called external urethral sphincter). The urethra functions in coordination with the bladder: it remains closed during bladder filling to maintain continence and it relaxes during voiding to allow flow of urine. These processes are controlled by parasympathetic, sympathetic and somatic innervation. Parasympathetic nerves release nitric oxide to relax the urethra during bladder voiding, while sympathetic nerves release noradrenaline to contract the urethra during bladder filling. The striated muscle receives somatic innervation that contracts the muscle ensuring continence during bladder filling. Using the model of stress urinary incontinence (SUI) in female rats the hypothesis was tested if Cpd.1B can be effective against SUI in the vaginal distension (VD) model by facilitating muscle growth and regeneration. […] Vaginal Distension (VD) was applied for 4 hours to female Sprague-Dawley Female rats under isoflurane anesthesia. 1 hour after the end of VD, the abdomen was surgically opened to access the urethra and rats received two injections of vehicle or Cpd.1B (10 μg each) through a Hamilton syringe at approximately 5 and 7 o'clock positions. Sham treated animals (catheter without inflation) were treated with vehicle as controls. […] Rats were then put in a supine position on a heated pad at 37° C. The bladder was emptied manually and filled with room temperature saline through the bladder catheter at 3.0 ml/h. After bladder filling with 0.4-0.5 ml, the abdomen was slowly depressed manually to increase abdominal pressure until fluid leakage was observed from the urethral orifice.

[3] = rat, in vivo
Experimental: (§1) For assessment of Cpd.1A exposure in rat tibialis anterior (TA) muscle, two injections of each 15 μl Cpd.1A at different doses (1, 3 or 10 μg per injection) into TA muscles of male or female rats were performed in adult rats. After 6, 24, 48 and 72 hours, TA muscles were harvested, divided into two parts to analyse RNA and protein content, and Cpd.1A RNA content was analysed by qPCR and IGF1 protein levels by human-specific IGF1 ELISA (Cat. #E20, Mediagnost, Reutlingen, Germany). Total RNA was extracted from flash frozen TA muscle tissues (ca. 10 mg) using Norgen's Animal Tissue RNA Purification Kit (Cat. #25700). A TaqMan assay was developed and validated to quantify Cpd.1A and Cpd.1B RNA from muscle tissues through absolute quantification. Both forward primer (5′ […] 3′; SEQ ID NO: 14) and reverse primer (5′ […] 3′; SEQ ID NO: 15) along with labelled probe with quencher (5′ FAM-CTGCTGCCGTAGCCTG-MGB-Q500 3′; SEQ ID NO: 16) were designed to be specifically bind to Cpd.1A and Cpd.1B RNA and ordered (www.microsynth.com). […] The Cpd.1A RNA copy numbers in TA muscles were assessed by calculating unknown values from standard curves. From qPCR data, half-life was calculated using a monoexponential decay function. […] After 24 and 72 hours, tissues were harvested, and Cpd.1B content was analysed by qPCR as specified above where standard curve template generated from Cpd.1B mRNA.

IGF1 protein = IGF1 protein expression in rat TA muscle after i.m. injection of Cpd.1A (human-specific IGF1 ELISA); assay type: in vivo; settings: 3 and 10 μg doses i.m., after a delay of several hours
Experimental: as §1

Molecule	endomysial tissue histology score [1]	inner longitudinal muscle layer (ILML) histology score [1]	outer circular muscle layer (OCML) histology score [1]	endomysial tissue histology score ([1]; listed as duloxetine)	inner longitudinal muscle layer (ILML) histology score ([1]; listed as duloxetine)	outer circular muscle layer (OCML) histology score ([1]; listed as duloxetine)	area under curve (AUC) of urinary bladder leak point pressure [2]	time course of leak point pressure (LPP) [2]	leak point pressure (LPP) of urinary bladder ([2]; Day 4 after VD, vs. VD vehicle)	leak point pressure (LPP) of urinary bladder ([2]; Day 14 after VD)	duration of relevant Cpd.1A exposure in TA muscle [3]	half-life of Cpd.1A in TA muscle ([3]; im, 3 ug)	duration of IGF1 protein production at relevant concentrations in TA muscle (IGF1 protein)	leak point pressure (LPP) of urinary bladder ([2]; Day 9 after VD)
CNCC[C@H](Oc1cccc2ccccc12)c1cccs1 [Duloxetine, reference compound]	further worsened this pathology	further increased the ILML score	further deteriorated the OCML pathology	worsens the endomysium score	worsens the ILML score	tends to worsen the OCML disorganization	clear increase in AUC; also recorded: beneficial efficacy	initial increase in LPP that declined thereafter to normal levels on Day 14	initial increase of LPP; also recorded: significant increase of LPP; also recorded: increased LPP	control levels				
B1											up to 72 hours	21 h	up to 72 hours	
B2	completely prevented this impairment; also recorded: reverted	preventing this disruption; also recorded: reverted	prevented this trend; also recorded: reverted				clear increase in AUC; also recorded: beneficial efficacy	increase of LPP over time that returned to normal levels by Day 14	significant increase in LPP; also recorded: significant increase of LPP; also recorded: increased LPP	full recovery to healthy LPP levels				further increased; also recorded: did not reach significance; also recorded: still showed increased LPP
